The values below come from the Immune Epitope Database (IEDB).

Common to all, as to assay: IEDB peptide-MHC binding, purified MHC/competitive/radioactivity; filed as Kd, often an IC50 or EC50 that approximates it; ≥ and ≤ were set here for values at or beyond the usual limits of such assays
The target of assay [1] is HLA-A*02:02.
The target in assay [2] is HLA-A*02:03.
Assay [3] concerns the target HLA-A*02:06.
Assay [4] has as its target HLA-A*03:01.
For assay [5], the target named is HLA-A*11:01.
The target of assay [6] is HLA-A*31:01.
Assay [7] addresses HLA-A*33:01.
Assay [8] addresses HLA-A*68:01.
[9] abbreviates: source organism: Vaccinia virus WR.
The mark [10] stands for this setting: source organism: Dengue virus 1 Brazil/97-11/1997.
Setting [11] is: source organism: Mammarenavirus brazilense.
Setting [12] is: source organism: Dengue virus 2 Jamaica/1409/1983.
The mark [13] stands for this setting: source organism: Lymphocytic choriomeningitis virus (strain Armstrong).
[14] abbreviates: source organism: SARS coronavirus Tor2.
[15] abbreviates: source organism: Mammarenavirus lassaense.
The mark [16] stands for this setting: source organism: Mammarenavirus mopeiaense.
[17] abbreviates: source organism: Mammarenavirus guanaritoense.

As to CTEETKRNIA, the Kd in assay [1] (setting [9]) was no less than 70000 nM; in assay [2] (setting [9]) it was no less than 50100 nM; in assay [3] (setting [9]), no less than 69800 nM.

With RQLTSNVDV, the values for the Kd in assay [1] (setting [9]), in assay [2] (setting [9]) and in assay [3] (setting [9]) were no less than 50800 nM, 9760 nM and 170 nM, respectively.

On to RTIDAINKCV, for which the results for the Kd in assay [1] (setting [9]), in assay [2] (setting [9]) and in assay [3] (setting [9]) were 10800 nM, 334 nM and 341 nM, respectively.

As to KVEKYLPEV, the Kd was 1050 nM in assay [1] (setting [9]), 171 nM in assay [2] (setting [9]) and 116 nM in assay [3] (setting [9]).

Regarding ILATLNTLI, the results for the Kd in assay [1] (setting [9]), in assay [2] (setting [9]) and in assay [3] (setting [9]) were 0.413 nM, 0.231 nM and 40.5 nM, respectively.

Take KVYLSTFNM: the Kd in assay [1] (setting [9]) came to 482 nM; in assay [2] (setting [9]), 786 nM; in assay [3] (setting [9]), 265 nM.

For SLIYYQNEVT, the dissociation constant (Kd) in assay [1] (setting [9]) turned out to be 77.2 nM; in assay [2] (setting [9]), 606 nM; in assay [3] (setting [9]) it was 4310 nM.

Regarding IMETIDPVYI, the equilibrium dissociation constant (Kd) in assay [1] (setting [9]) stood at 28.6 nM; in assay [2] (setting [9]) it was 239 nM; in assay [3] (setting [9]), 349 nM.

In the case of FQPHQLWTT, in assay [3] (setting [10]), the Kd is 6.01 nM.

Take ICFWSTLFFT: the Kd in assay [1] (setting [11]) was no less than 33200 nM; in assay [2] (setting [11]), no less than 35100 nM; in assay [3] (setting [11]) it was no less than 34900 nM.

Regarding YAVLSEYET, the figures for the Kd in assay [1] (setting [9]), in assay [2] (setting [9]) and in assay [3] (setting [9]) were 1780 nM, no less than 35100 nM and 1330 nM, respectively.

For the sequence PLSINVSGV, the Kd in assay [1] (setting [9]) is 1120 nM; in assay [2] (setting [9]), 45.3 nM; in assay [3] (setting [9]), 17900 nM.

In the case of ALGMMVLKIV, the Kd in assay [2] (setting [12]) was 55.9 nM.

In the case of GTKGKLYIAL, the Kd in assay [1] (setting [9]) is 9070 nM; in assay [2] (setting [9]), 7840 nM; in assay [3] (setting [9]), no less than 37200 nM.

In the case of YVSSSYKDI, the Kd is 5040 nM in assay [1] (setting [9]), 1200 nM in assay [2] (setting [9]) and 16600 nM in assay [3] (setting [9]).

Take IAIFNNRNL: the Kd was 9230 nM in assay [1] (setting [9]), 10500 nM in assay [2] (setting [9]) and 13400 nM in assay [3] (setting [9]).

On to SNSEDLLKAV, for which the Kd in assay [1] (setting [13]) is 17700 nM; in assay [2] (setting [13]), 15200 nM; in assay [3] (setting [13]), no less than 10000 nM.

In the case of ILAVVSVSPL, the Kd in assay [2] (source organism: Dengue virus 2 16681-PDK53) came out at 39.5 nM.

Consider KLLIVLTCI, for which the Kd in assay [1] (setting [14]) amounted to 260 nM; in assay [2] (setting [14]) it was 1940 nM; in assay [3] (setting [14]), 449 nM.

For CQCTVQEFI, the Kd in assay [1] (setting [9]) amounted to 2050 nM; in assay [2] (setting [9]), 4790 nM; in assay [3] (setting [9]), 1130 nM.

As for KVIKLVKSL, the results for the dissociation constant Kd in assay [1] (setting [9]), in assay [2] (setting [9]) and in assay [3] (setting [9]) were 578 nM, 42.5 nM and 260 nM, respectively.

As to GLSASDVDM, the equilibrium dissociation constant (Kd) was found to be 497 nM in assay [1] (setting [9]), 3540 nM in assay [2] (setting [9]) and 13800 nM in assay [3] (setting [9]).

As for MQLKIDKLT, the Kd is 7670 nM in assay [1] (setting [9]), no less than 60100 nM in assay [2] (setting [9]) and no less than 59600 nM in assay [3] (setting [9]).

On to IISLFYTFAI, for which the Kd came out at 108 nM in assay [1] (setting [9]), 43.7 nM in assay [2] (setting [9]) and 146 nM in assay [3] (setting [9]).

For the sequence FLPQIGGEAI, the Kd in assay [1] (setting [9]) worked out at 0.998 nM; in assay [2] (setting [9]) it was 13.5 nM; in assay [3] (setting [9]), 10.1 nM.

As for GLIVILFIM, the Kd in assay [1] (setting [9]) turned out to be 13400 nM; in assay [2] (setting [9]) it was 1390 nM; in assay [3] (setting [9]), 5290 nM.

In the case of PVLEKKVCAI, the dissociation constant (Kd) in assay [1] (setting [9]) stood at 541 nM; in assay [2] (setting [9]), 1190 nM; in assay [3] (setting [9]), 1050 nM.

Take KLKSMEAEMI: in assay [3] (source organism: Homo sapiens), the Kd was determined as 7830 nM.

Turning to GLMILLTGGA, the dissociation constant (Kd) in assay [2] (source organism: Dengue virus 3 Martinique/1243/1999) worked out at 23.1 nM.

Regarding GQIDNFSLGV, the Kd in assay [3] (setting [12]) was found to be 5.63 nM.

Consider KVSCTILAAV, for which the Kd in assay [2] (setting [12]) worked out at 54.4 nM; in assay [3] (setting [12]), 12.7 nM.

FLKDDTLSK: the Kd was 347 nM in assay [4] (setting [9]); no less than 10000 nM in assay [5] (setting [9]); no less than 77900 nM in assay [6] (setting [9]); no less than 30700 nM in assay [7] (setting [9]); 638 nM in assay [8] (setting [9]).

As for SVFYLYLTFY, the Kd in assay [4] (setting [14]) is 1790 nM; in assay [5] (setting [14]), 196 nM; in assay [6] (setting [14]), 2860 nM; in assay [7] (setting [14]), 6010 nM; in assay [8] (setting [14]), 99.4 nM.

Consider TLIAMDLGEL, for which the Kd in assay [2] (setting [10]) was determined as 12.6 nM.

Take IITSTKTIEY: the Kd is 82.2 nM in assay [4] (setting [9]); 917 nM in assay [5] (setting [9]); 6630 nM in assay [6] (setting [9]); 14100 nM in assay [7] (setting [9]); 5720 nM in assay [8] (setting [9]).

As for SMTCIAVGMV, in assay [2] (setting [10]), the Kd was 21.5 nM.

For the sequence SSMTIREFPR, the Kd turned out to be 9970 nM in assay [4] (setting [9]); 5.47 nM in assay [5] (setting [9]); 0.996 nM in assay [6] (setting [9]); 17.3 nM in assay [7] (setting [9]); 0.479 nM in assay [8] (setting [9]).

For the sequence NAISSRVDR, the Kd in assay [4] (setting [9]) was no less than 78000 nM; in assay [5] (setting [9]), no less than 37100 nM; in assay [6] (setting [9]) it was 1280 nM; in assay [7] (setting [9]), 96 nM; in assay [8] (setting [9]), 14.9 nM.

Consider SHLGPQFCK, for which the Kd in assay [4] (setting [15]) is 699 nM; in assay [5] (setting [15]) it was 347 nM; in assay [6] (setting [15]) it was no less than 24200 nM; in assay [7] (setting [15]), no less than 28300 nM; in assay [8] (setting [15]), 6220 nM.

Consider VVVQIDPEY, for which the Kd was 141 nM in assay [4] (setting [9]); 2340 nM in assay [5] (setting [9]); no less than 77900 nM in assay [6] (setting [9]); no less than 77700 nM in assay [7] (setting [9]); 110 nM in assay [8] (setting [9]).

KSMFWDGMDY: the dissociation constant Kd was 5.79 nM in assay [4] (setting [9]); 1.75 nM in assay [5] (setting [9]); 77.2 nM in assay [6] (setting [9]); no less than 66200 nM in assay [7] (setting [9]); 511 nM in assay [8] (setting [9]).

As to KCFGNTAIAK, the equilibrium dissociation constant (Kd) in assay [4] (setting [16]) was 195 nM; in assay [5] (setting [16]), 7370 nM; in assay [6] (setting [16]), 528 nM; in assay [7] (setting [16]), 3380 nM; in assay [8] (setting [16]), 7870 nM.

AFLLRHYYNK: the Kd turned out to be 749 nM in assay [4] (setting [9]); 225 nM in assay [5] (setting [9]); 23.8 nM in assay [6] (setting [9]); 1910 nM in assay [7] (setting [9]); 5340 nM in assay [8] (setting [9]).

Regarding DIEIGNFYIR, the Kd in assay [4] (setting [9]) was 845 nM; in assay [5] (setting [9]) it was 10400 nM; in assay [6] (setting [9]), 822 nM; in assay [7] (setting [9]), 129 nM; in assay [8] (setting [9]) it was 49 nM.

Regarding VSVSDFRDY, the Kd in assay [4] (setting [9]) was no less than 78000 nM; in assay [5] (setting [9]) it was 10400 nM; in assay [6] (setting [9]), no less than 77900 nM; in assay [7] (setting [9]), 11900 nM; in assay [8] (setting [9]), no less than 77700 nM.

For the sequence TLITLILSNK, the Kd in assay [4] (setting [9]) turned out to be 1.61 nM; in assay [5] (setting [9]) it was 3.41 nM; in assay [6] (setting [9]) it was 570 nM; in assay [7] (setting [9]), 8500 nM; in assay [8] (setting [9]), 3.73 nM.

FLKEQHCQK: the Kd in assay [4] (setting [14]) came to 193 nM; in assay [5] (setting [14]) it was 15400 nM; in assay [6] (setting [14]), 802 nM; in assay [7] (setting [14]), 643 nM; in assay [8] (setting [14]), 1320 nM.

For VCLALTNSMK, the Kd in assay [4] (setting [13]) was 42.4 nM; in assay [5] (setting [13]), 634 nM; in assay [6] (setting [13]), 4560 nM; in assay [7] (setting [13]), no less than 66800 nM; in assay [8] (setting [13]), 19300 nM.

With NFLKEQHCQK, the Kd in assay [4] (setting [14]) was 7280 nM; in assay [5] (setting [14]), 13300 nM; in assay [6] (setting [14]), 1470 nM; in assay [7] (setting [14]), 1220 nM; in assay [8] (setting [14]) it was no less than 36400 nM.

Consider PLIDIIRKR, for which the Kd is no less than 45700 nM in assay [4] (setting [9]); no less than 48100 nM in assay [5] (setting [9]); 6250 nM in assay [6] (setting [9]); 1020 nM in assay [7] (setting [9]); 974 nM in assay [8] (setting [9]).

Take SVKYYGRSTK: the Kd in assay [4] (setting [9]) is 97.6 nM; in assay [5] (setting [9]), 571 nM; in assay [6] (setting [9]) it was 1340 nM; in assay [7] (setting [9]), 13500 nM; in assay [8] (setting [9]), 822 nM.

Take FFTTSLFLH: the Kd is no less than 55700 nM in assay [4] (setting [17]); no less than 77900 nM in assay [5] (setting [17]); 1190 nM in assay [6] (setting [17]); no less than 77700 nM in assay [7] (setting [17]); no less than 24800 nM in assay [8] (setting [17]).
